Test [1] has as its target T1, GST-PPARγ fusion protein (immobilized PPARγ) (UniProt P37238 1-505).
T1 construct: also called FST-PPARγ fusion protein; bacterially expressed PPARγ immobilized on beads; not shown: glutathione S-transferase (GST) moiety; printed as 'FST'
T1 sequence (looked up): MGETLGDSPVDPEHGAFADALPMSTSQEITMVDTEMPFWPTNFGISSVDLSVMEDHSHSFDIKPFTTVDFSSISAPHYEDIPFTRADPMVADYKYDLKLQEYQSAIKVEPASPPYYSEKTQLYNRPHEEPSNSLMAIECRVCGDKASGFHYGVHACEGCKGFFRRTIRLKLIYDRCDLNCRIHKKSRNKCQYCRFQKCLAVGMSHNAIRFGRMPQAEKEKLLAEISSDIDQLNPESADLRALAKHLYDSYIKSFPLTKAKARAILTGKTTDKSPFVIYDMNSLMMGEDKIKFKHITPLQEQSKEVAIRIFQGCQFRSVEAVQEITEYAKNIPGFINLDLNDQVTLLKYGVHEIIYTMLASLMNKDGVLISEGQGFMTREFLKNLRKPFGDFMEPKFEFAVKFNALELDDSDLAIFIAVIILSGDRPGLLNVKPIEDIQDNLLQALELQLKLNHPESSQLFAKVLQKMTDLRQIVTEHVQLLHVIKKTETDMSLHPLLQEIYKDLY
Put plainly: pull-down of in vitro-translated 35S-labeled PGC-1 deletion with immobilized GST-PPARγ. The source says: These were then translated into vitro with an [³⁵S]methionine-label. One microliter of each in vitro translation reaction was resolved by SDS-PAGE and autoradigraphed.

In test [2] the target is T2, full-length mouse PGC-1 (aa 1-797) (mouse, UniProt O70343 1-797, [35S]methionine-labeled in the pull-down assays).
T2 construct: In vitro reticulocyte translation product in the pull-downs; the same full-length protein was expressed from pSV-SPORT in the transcription assays; also called reticulocyte-translated PGC-1
T2 sequence: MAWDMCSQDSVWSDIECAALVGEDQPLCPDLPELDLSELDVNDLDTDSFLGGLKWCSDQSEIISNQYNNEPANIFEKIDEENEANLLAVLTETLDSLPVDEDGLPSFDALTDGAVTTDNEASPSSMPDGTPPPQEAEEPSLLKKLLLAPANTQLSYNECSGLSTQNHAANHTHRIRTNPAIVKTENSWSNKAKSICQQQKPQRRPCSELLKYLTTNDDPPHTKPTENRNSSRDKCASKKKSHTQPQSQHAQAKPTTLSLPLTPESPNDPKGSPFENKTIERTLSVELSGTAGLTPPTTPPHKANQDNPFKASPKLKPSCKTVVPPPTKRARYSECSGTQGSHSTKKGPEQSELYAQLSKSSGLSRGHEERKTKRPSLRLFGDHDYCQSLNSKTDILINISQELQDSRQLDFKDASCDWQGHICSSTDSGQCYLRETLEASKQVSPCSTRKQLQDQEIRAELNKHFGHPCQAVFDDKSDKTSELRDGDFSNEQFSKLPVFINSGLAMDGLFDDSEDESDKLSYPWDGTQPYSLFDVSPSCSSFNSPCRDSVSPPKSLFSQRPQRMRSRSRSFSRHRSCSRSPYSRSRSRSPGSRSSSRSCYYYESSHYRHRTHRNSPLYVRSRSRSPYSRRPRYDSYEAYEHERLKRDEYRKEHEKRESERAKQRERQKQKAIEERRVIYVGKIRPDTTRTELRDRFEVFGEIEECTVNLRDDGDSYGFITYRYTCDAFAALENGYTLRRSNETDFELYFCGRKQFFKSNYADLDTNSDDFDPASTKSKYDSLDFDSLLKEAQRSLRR
The test can be described thus: pull-down of in vitro-translated PGC-1 with GST-PPARγ deletion. From the text: Most of the nuclear hormone receptor coactivators identified to date interact with the C-terminal AF-2 domain, which is responsible for ligand-dependent transcriptional activation.

B1: PGC-1 1-292 (other)
chain: MAWDMCSQDSVWSDIECAALVGEDQPLCPDLPELDLSELDVNDLDTDSFLGGLKWCSDQSEIISNQYNNEPANIFEKIDEENEANLLAVLTETLDSLPVDEDGLPSFDALTDGAVTTDNEASPSSMPDGTPPPQEAEEPSLLKKLLLAPANTQLSYNECSGLSTQNHAANHTHRIRTNPAIVKTENSWSNKAKSICQQQKPQRRPCSELLKYLTTNDDPPHTKPTENRNSSRDKCASKKKSHTQPQSQHAQAKPTTLSLPLTPESPNDPKGSPFENKTIERTLSVELSGTAG
modifications: [35S]methionine-labeled
notes: In vitro translated; still contains the LXXLL motif (aa 142-146)
Turning to B1, the binding result in test [1] is “no binding”.

B2: GST fusion of PPARγ 228-505 (receptor, mouse, UniProt P37238 228-505, looked up)
chain: DIDQLNPESADLRALAKHLYDSYIKSFPLTKAKARAILTGKTTDKSPFVIYDMNSLMMGEDKIKFKHITPLQEQSKEVAIRIFQGCQFRSVEAVQEITEYAKNIPGFINLDLNDQVTLLKYGVHEIIYTMLASLMNKDGVLISEGQGFMTREFLKNLRKPFGDFMEPKFEFAVKFNALELDDSDLAIFIAVIILSGDRPGLLNVKPIEDIQDNLLQALELQLKLNHPESSQLFAKVLQKMTDLRQIVTEHVQLLHVIKKTETDMSLHPLLQEIYKDLY
notes: not shown: glutathione S-transferase (GST) moiety of pGEX 5X2
B2: the binding result in test [2] was “no binding”.

These data come from US20030229204A1 (Dana-Farber, published 2003).
